“Also recorded” adds a separate entry of the source.
Legend:
[1] = test system: C57BL/6 mice; assay: Acute mouse study: immunohistochemistry of undifferentiated spermatogonia (PLZF) and apoptosis 5 days after busulfan +/- G-CSF; assay type: in vivo; settings: five days after busulfan treatment
Method: (§1) FIGS. 3A-3D. This study evaluated the chronic and acute effects of G-CSF treatment on susceptibility to cytotoxic damage by busulfan alkylating chemotherapy. (A) Five-week old C57BL/6 mice were treated with a sterilizing dose of busulfan (44 mg/kg) on day 0. Some busulfan-treated mice also received injections of recombinant human G-CSF (50 μg/kg/day) on days −2 through 4 (seven days total, see group 3 in B). (B) 3 animals were used for each of three treatment groups as shown. Animals in group 1 served as an “untreated” control group (received 0.1% BSA/DPBS and DMSO vehicles only), while those in group 2, which received only busulfan (plus 0.1% BSA/DPBS vehicle), served as positive controls for busulfan cytotoxicity. Animals in the experimental group 3 received both busulfan and daily G-CSF injections. (C) 8-10 weeks after treatment, some of the mice were euthanized and testes removed for histological evaluation of spermatogenesis. (D) In an “acute” study, testes were removed on day 5 of the experiment (one day after the last G-CSF treatment, dark triangle). These testis tissues were used for immunohistochemical analysis of undifferentiated spermatogonia (PLZF) and apoptosis (activated Caspase 3 and TUNEL, see FIGS. 10-12).
FIG. 10. […] The numbers of PLZF+spermatogonia in stained testis sections from mice treated as in FIG. 3 and analyzed as in FIG. 3D are shown. […] Statistical significance was determined by student's T-test.
FIG. 11. […] Despite increased numbers of PLZF+spermatogonia in busulfan-treated animals that also received G-CSF (FIG. 10), the proportions of PLZF+spermatogonia that were positive for activated Caspase 3 (top) were not different between animals treated with G-CSF compared to busulfan alone (p=0.38).
FIG. 12. […] Despite increased numbers of PLZF+spermatogonia in busulfan-treated animals that also received G-CSF (FIG. 10), the proportions of PLZF+spermatogonia that were positive for TUNEL were not different between animals treated with G-CSF compared to busulfan alone (p=0.28).
Shown in FIG. 10 are the numbers of PLZF+spermatogonia in stained testis sections from mice treated as in FIG. 3. […] Statistical significance was determined by student's T-test.
Despite increased numbers of PLZF+spermatogonia in busulfan-treated animals that also received G-CSF, the proportions of PLZF+spermatogonia that were positive for activated Caspase 3 (FIG. 11) or TUNEL (FIG. 12) were not different between animals treated with G-CSF compared to busulfan alone (p=0.38 and p=0.28, respectively).

[2] = test system: rhesus macaques; settings: 8-12 mg/kg busulfan without G-CSF; two animals; total sperm per ejaculate; cited from earlier work
[3] = test system: C57BL/6 mice; assay: Mouse testis weight and histological evaluation of spermatogenesis two months after busulfan +/- G-CSF; assay type: in vivo
Method: as §1
FIG. 4. Mouse testis weights 2 months after busulfan treatment +/−G-CSF. Two months after treatment, testes were removed from the treated mice and weighed. […] But, testis weights from animals treated with busulfan+G-CSF were not different from those treated with busulfan+vehicle. Statistical significance was determined by a student's T-test.
FIGS. 5A-5F. […] Tiled brightfield images of H&E-stained sections of mouse testes from (A) group 1 (DMSO+vehicle), (B) group 2 (busulfan+vehicle), and (C) group 3 (busulfan+G-CSF). Dashed box inset indicates the area shown in D-F. Scale bars=500 μm. Enlarged images of the dashed boxes in A-C are shown in (D-F), respectively. Scale bars=50 μm. Filled arrowheads=seminiferous tubules with spermatogenesis. Open arrowheads=no spermatogenesis.
FIGS. 6A-6B. Quantitatively more mouse spermatogenesis was observed after busulfan treatment when mice received G-CSF treatment. Seminiferous tubule cross-sections from mice treated as shown in FIG. 5 were systematically counted and categorized as containing complete spermatogenesis (complete), up to round spermatid stage (round spermatids), up to primary spermatocytes (1° spermatocytes), or containing no spermatogenesis (empty or Sertoli cell-only). (A) The percentage of all seminiferous tubule cross-sections counted from all animals in each group which fall in the four categories is shown. […] (B) The same data presented in A are combined by group to show the percentage of seminiferous tubules containing any spermatogenesis or no spermatogenesis (empty bar segment). […] Statistically significant results (p<0.05) were determined by Tukey-Kramer ANOVA.
The results of meta-analysis of the rhesus macaque busulfan studies prompted additional studies in mice to (1) replicate the results observed in rhesus macaques and (2) determine whether G-CSF could act directly upon testicular germ cells to prevent male infertility after busulfan treatment. In the first experiment, 5 week-old C57BL/6 mice were treated with G-CSF for one week (50 μg/kg/day) and administered busulfan (44 mg/kg) on day 3 (see FIG. 3), mimicking the approach used to administer G-CSF in rhesus monkeys. Two months after completing G-CSF treatment, the mice euthanized and their testes removed. […] The testes were then analyzed histologically (FIG. 5) to determine if G-CSF treatment affected the degree of spermatogenesis after busulfan treatment. Unlike control testes, in which most tubules contained complete spermatogenesis (FIGS. 5A and D), many tubules were devoid of germ cells (empty or Sertoli cell-only) in animals treated with busulfan (FIGS. 5B-C and E-F).

[4] = test system: rhesus macaques; assay: Meta-analysis of ejaculated sperm counts in rhesus macaques after busulfan chemotherapy with or without G-CSF; assay type: in vivo, rhesus macaque
Text: FIG. 1. Timeline for rhesus macaque granulocyte colony stimulating factor (G-CSF) and chemotherapy administration. FIG. 1 illustrates the timing of experimental administration of G-CSF and busulfan alkyating chemotherapy in the context of a study testing spermatogonial stem cell transplantation. Male rhesus macaques were used as recipients for spermatogonial stem cell transplantation after busulfan treatment. In order to restore the hematopoietic system after busulfan chemotherapy, autologous transplants of hematopoietic stem cells harvested from the peripheral blood (PBSCs) following G-CSF mobilization were used. Animals received daily subcutaneous injections with the cytokine G-CSF (and in some cases, also SCF) for six days to mobilize hematopoietic stem cells from the bone marrow into the general circulation. […] Animals were monitored closely for hematopoietic deficits with weekly (or more frequent) complete blood count (CBC). […] Weekly ejaculated sperm counts measured the effect of busulfan on spermatogenesis and the progression of spermatogenic recovery after transplant. […]
Animals received daily subcutaneous injections with the cytokine G-CSF for 6 days to mobilize hematopoietic stem cells from the bone marrow into the general circulation. […] Animals were monitored closely for hematopoietic deficits with weekly (or more frequent) complete blood count (CBC). […]

[5] = test system: irradiated mice; settings: G-CSF 100 μg/kg/day for 3 days prior to 5 Gy testicular gamma irradiation; measured 3 weeks later; cited from earlier work
[6] = 2 day pre-treatment and 5 day post-treatment with G-CSF 50 μg/kg, p<0.05 Tukey-Kramer ANOVA

Molecule: CS(=O)(=O)OCCCCOS(C)(=O)=O [busulfan, reference compound]
- numbers of PLZF+ spermatogonia per tubule, busulfan-treated groups compared with vehicle-treated animals ([1]; student's T-test): significantly lower
- loss of spermatogenesis (azoospermia), mean sperm counts [2]: loss of spermatogenesis (azoospermia) for at least one year
- spermatogenesis, busulfan alone compared to control animals ([3]; busulfan 44 mg/kg, two months after treatment, histology of seminiferous tubule cross-sections): significantly less spermatogenesis
- testis weights, busulfan-treated animals compared with controls ([3]; busulfan 44 mg/kg, two months after treatment, student's T-test): significantly smaller; also recorded: significantly reduced

Molecule: SCF: cytokine given in some cases in addition to G-CSF for mobilization of hematopoietic stem cells
- spermatogenic recovery, animal given SCF in addition to G-CSF compared with the other two G-CSF animals ([4]; one monkey of the G-CSF group, data not shown): no apparent difference in spermatogenic recovery

B1: granulocyte colony-stimulating factor (protein, UniProt P09919 31-207, looked up)
Granulocyte …: TPLGPASSLPQSFLLKCLEQVRKIQGDGAALQEKLVSECATYKLCHPEELVLLGHSLGIPWAPLSSCPSQALQLAGCLSQLHSGLFLYQGLLQALEGISPELGPTLDTLQLDVADFATTIWQQMEELGMAPALQPTQGAMPAFASAFQRRAGGVLVASHLQSFLEVSYRVLRHLAQP
notes: protein produced from the gene encoding colony-stimulating factor 3; known by trade names neupogen, neulasta, filgrastim
- proportion of PLZF+ spermatogonia positive for activated Caspase 3, G-CSF compared to busulfan alone ([1]; early apoptosis, p=0.38): not different
- number of PLZF+ spermatogonia per tubule cross-section, G-CSF + busulfan compared with busulfan alone ([1]; p=0.035, student's T-test): significantly higher
- proportion of PLZF+ spermatogonia positive for TUNEL, G-CSF compared to busulfan alone ([1]; late apoptosis, p=0.28): not different
- time at which spermatogenesis recovered after busulfan treatment ([4]; 8-11 mg/kg busulfan plus G-CSF mobilization and PBSC transplants, three animals, endogenous spermatogenesis): ≥ 20 weeks
- empty seminiferous tubules, G-CSF + busulfan compared with busulfan alone [3, 6]: significantly fewer; also recorded: significantly less
- seminiferous tubules containing complete spermatogenesis, G-CSF + busulfan compared with busulfan alone [3, 6]: significantly more
- tubules with any degree of spermatogenesis, G-CSF + busulfan compared with busulfan alone [3, 6]: significantly more
- testis weights, busulfan + G-CSF compared with busulfan alone ([3]; G-CSF 50 μg/kg/day for seven days, busulfan 44 mg/kg, two months after treatment): not different; also recorded: did not differ significantly
- recovery of spermatogenesis after busulfan treatment, G-CSF compared with controls ([3]; histological analysis, G-CSF 50 μg/kg/day, busulfan 44 mg/kg, two months): significantly better recovery of spermatogenesis
- numbers of surviving differentiated spermatogonia following sub-sterilizing irradiation [5]: modest improvement

Source: US10925928B2, “Method for treating chemotherapy-induced male infertility” (THE BOARD OF REGENTS OF THE UNIVERSITY OF TEXAS SYSTEM, priority 2013, dated 2021)
